Values of other authors as cited in US6610516B1, “Cell culture process” (Genentech, Inc., priority 1999, dated 2003).

Assays:
fibrin = conditions: Keyt et al. 1994

| Molecule | Clearance rate versus wild-type human t-PA (Hotchkiss et al., Lau et al.) | Fibrin specificity versus wild-type human t-PA (fibrin) | Circulatory half-life versus wild-type human t-PA (Keyt et al. 1994) |
| --- | --- | --- | --- |
| N117Q: t-PA variant wherein asparagine at position 117 of wild-type human t-PA was substituted with glutamine (protein, UniProt P00750 36-562, looked up, variant N117Q) Tissue-type plasminogen …: SYQVICRDEKTQMIYQQHQSWLRPVLRSNRVEYCWCNSGRAQCHSVPVKSCSEPRCFNGGTCQQALYFSDFVCQCPEGFAGKCCEIDTRATCYEDQGISYRGTWSTAESGAECTNWQSSALAQKPYSGRRPDAIRLGLGNHNYCRNPDRDSKPWCYVFKAGKYSSEFCSTPACSEGNSDCYFGNGSAYRGTHSLTESGASCLPWNSMILIGKVYTAQNPSAQALGLGKHNYCRNPDGDAKPWCHVLKNRRLTWEYCDVPSCSTCGLRQYSQPQFRIKGGLFADIASHPWQAAIFAKHRRSPGERFLCGGILISSCWILSAAHCFQERFPPHHLTVILGRTYRVVPGEEEQKFEVEKYIVHKEFDDDTYDNDIALLQLKSDSSRCAQESSVVRTVCLPPADLQLPDWTECELSGYGKHEALSPFYSERLKEAHVRLYPSSRCTSQHLLNRTVTDNMLCAGDTRSGGPQANLHDACQGDSGGPLVCLNDGRMTLVGIISWGLGCGQKDVPGVYTKVTNYLDWIRDNMRP | about two-fold slower clearance rate | – | – |
| TNK t-PA: t-PA variant: glycosylation site added at position 103, removed at 117, positions 296-299 replaced by AAAA (protein, UniProt P00750 36-562, looked up, variant T103N N117Q K296A H297A R298A R299A) Tissue-type plasminogen …: SYQVICRDEKTQMIYQQHQSWLRPVLRSNRVEYCWCNSGRAQCHSVPVKSCSEPRCFNGGTCQQALYFSDFVCQCPEGFAGKCCEIDTRATCYEDQGISYRGNWSTAESGAECTNWQSSALAQKPYSGRRPDAIRLGLGNHNYCRNPDRDSKPWCYVFKAGKYSSEFCSTPACSEGNSDCYFGNGSAYRGTHSLTESGASCLPWNSMILIGKVYTAQNPSAQALGLGKHNYCRNPDGDAKPWCHVLKNRRLTWEYCDVPSCSTCGLRQYSQPQFRIKGGLFADIASHPWQAAIFAAAAASPGERFLCGGILISSCWILSAAHCFQERFPPHHLTVILGRTYRVVPGEEEQKFEVEKYIVHKEFDDDTYDNDIALLQLKSDSSRCAQESSVVRTVCLPPADLQLPDWTECELSGYGKHEALSPFYSERLKEAHVRLYPSSRCTSQHLLNRTVTDNMLCAGDTRSGGPQANLHDACQGDSGGPLVCLNDGRMTLVGIISWGLGCGQKDVPGVYTKVTNYLDWIRDNMRP | – | markedly better fibrin specificity | increased circulatory half-life |
